The test system of data set [1] is MS2 coat protein. As to the kind of experiment: apparent KD of MS2 coat protein, switch ON state; designed switch direction (-1 OFF switch, 1 ON switch): 1; higher = weaker reporter binding. The settings on record: FMN input: 0 or 200 uM; Eterna round: R93 (includes R88 designs). The method, boiled down: (§1)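 Designed RNA switches, transcribed on-chip from Illumina sequencing clusters, were titrated with SNAP-549-labelled MS2 coat protein from 0.7 or 1.5 nM to 3 µM in twofold steps. The solution was 100 mM Tris-HCl pH 7.5, 80 mM KCl, 4 mM MgCl2, with constant ligand or without it. Apparent KD is the median over each design's normalised cluster binding-curve fits.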

The subject of data set [2] is MS2 coat protein. Kind of data set: apparent KD of MS2 coat protein, switch OFF state (with FMN for OFF switches, without FMN for ON switches); designed switch direction (-1 OFF switch, 1 ON switch): 1; higher = weaker reporter binding. The conditions noted are these: FMN input: 0 or 200 uM; Eterna round: R93 (includes R88 designs). The gist of the method: as §1

For the sequence “AGAAAUAAAGGAGAGGAUAUCCAAAAGAAAACAUGAGGAUCACCCAUGUAAAAGAAAAUAAAGUGGGAGAAGGCUUCAAAUAAGA [Starry modified V5]”, the “apparent KD of MS2 coat protein” value in data set [1] stood at 18.7 nM; in data set [2], 45.2 nM.

In the case of “AAUAGACAUGAGGAUCACCCAUGUAGAAUUAUGGGAGGAUAUACAAAGACGAGAGUCAGAGUAGAAGGCCUAGGAG [salish99-ss1-150]”, the “apparent KD of MS2 coat protein” value came to 22.1 nM in data set [1] and 48.3 nM in data set [2].

Turning to “AUAUAUAAAAGGUAGGAUAUUCUAAAAUAAACAUGAGGAUCACCCAUGUAAAGAAAGAAACUCAUGGAGAAGGACCAUAUAUAUA [ss2 5th modifying Eli's mod of Tesla]”, the “apparent KD of MS2 coat protein” value in data set [1] amounted to 45.6 nM; in data set [2] it was 156 nM.

For “AAAGAAUGAAGGCAGGAUAUGUGAAAAAAAACAUGAGGAUCACCCAUGUAAUAAAUGGGUACAAAACAGAAGGGCCAAGAAACAA [SS 2 Tesla 3]”, the “apparent KD of MS2 coat protein” value was found to be 380 nM in data set [1] and 700 nM in data set [2].

Take “AGAAAUAAAGCUGAGGAUAUGGGUAAAUACACAUGAGGAUCACCCAUGUAAAAGAAAAUAAAAAACCAGAAGGCAGCAAAUAAGA [Designing denovo 4]”: the figures for the “apparent KD of MS2 coat protein” value in data set [1] and in data set [2] were 23.4 nM and 30.8 nM, respectively.

For “AAGAAACAUGAGGAUCACCCAUGUAAGAUAAACACAGGAUAUGCGAAAAUAAAUAAAUAAGCAGAAGGGUGAAAAG [Mat - Same State 1 - Tesla mod - 75]”, the “apparent KD of MS2 coat protein” value was found to be 19.9 nM in data set [1] and 32.4 nM in data set [2].

With “AAAAAAAAAGUCGAGGAUAUCCACAUGGCUACAUGAGGAUCACCCAUGUGAAGAAAAGCACAUGAGGAGAAGGCGACAAAAAAAAA [Tightrope]”, the figures for the “apparent KD of MS2 coat protein” value in data set [1] and in data set [2] were 11.6 nM and 24.5 nM, respectively.

Regarding “AAAAAACAUGAGGAUCACCCAUGUGAGAAUAUGGAAGGAUAUACAAAGACGAAAGUCAAAGUAGAAGGUCUAAAAG [Mat - Same State 1 - Eli mod - D90]”, the “apparent KD of MS2 coat protein” value in data set [1] is 31.1 nM; in data set [2] it was 31.5 nM.

As for “AUAAAUAAAAGCAAGGAUAUCCAAAAGAAAACAUGAGGAUCACCCAUGUAAAAGAAAAUAAAAUGGGAGAAGGUGCAAAAUAAAU [viburnum 8]”, the “apparent KD of MS2 coat protein” value in data set [1] is 14.8 nM; in data set [2], 27.5 nM.

On to “AAAUAAAUGACUGAGGAUAUAUCGAUGAAAACAUGAGGAUCACCCAUGUGAUAAUAAAAAGGGUGAUAGAAGGUAGUCAACAAAC [Mod 11 of Pariah 4 by Hyphema in Round 1]”, for which the “apparent KD of MS2 coat protein” value in data set [1] came to 52.1 nM; in data set [2] it was 211 nM.

On to “GUAUGCAUGAGGUAGGAUAUCCAAAACAAAACAUGAGGAUCACCCAUGUAAACAAACAACAAAUGGGAGAAGGACCACAUGUAUAC [Ex6 sub 5]”, for which the “apparent KD of MS2 coat protein” value in data set [1] worked out at 13.1 nM; in data set [2] it was 27.1 nM.

With “CAUCAUGCGCCUAAGGAUAUGUCUCACAAGACAUGAGGAUCACCCAUGUAGAAUAAAUAAAUGAUGCAGAAGGUGGAGCACAUGC [Leedanla]”, the “apparent KD of MS2 coat protein” value in data set [1] is 372 nM; in data set [2], 586 nM.

On to “UUAUUACAUGAGGAUCACCCAUGUUUAGUGGUGACAGGAUAUACGAAAAAAAAAAAAAAAGUAGAAGGGUCUUAUU [SS 1.1]”, for which the “apparent KD of MS2 coat protein” value came to 162 nM in data set [1] and 50.5 nM in data set [2].

For “CAGAGACAUGAGGAUCACCCAUGUAGGAUUAUGGGAGGAUAUACAAAGACGAGAGUCAGAGUAGAAGGCCUAGGAG [salish99-ss1-143]”, the “apparent KD of MS2 coat protein” value in data set [1] is 24 nM; in data set [2] it was 48.6 nM.

Turning to “AAAAGACAUGAGGAUCACCCAUGUCAAAACGUAGGAGGAUAUGUAUGGAAACCAUACUGUACAGAAGGCCUUUGUC [SS1 - 77]”, the “apparent KD of MS2 coat protein” value amounted to 14 nM in data set [1] and 14.2 nM in data set [2].

As for “GAAAAACAUGAGGAUCACCCAUGUAAGAUAAACACAGGAUAUGCGAAAAUAAACAAAUAAGCAGAAGGGUGAAAAG [Mat - Same State 1 - Tesla mod - 77]”, the “apparent KD of MS2 coat protein” value in data set [1] worked out at 18.5 nM; in data set [2] it was 47.4 nM.
